T1: human CD98 ECD (Homo sapiens, UniProt P08195)
T1 construct: Human CD98 ECD with C-terminal His-tag
T1 sequence (P08195 with tags, fused parts or gaps): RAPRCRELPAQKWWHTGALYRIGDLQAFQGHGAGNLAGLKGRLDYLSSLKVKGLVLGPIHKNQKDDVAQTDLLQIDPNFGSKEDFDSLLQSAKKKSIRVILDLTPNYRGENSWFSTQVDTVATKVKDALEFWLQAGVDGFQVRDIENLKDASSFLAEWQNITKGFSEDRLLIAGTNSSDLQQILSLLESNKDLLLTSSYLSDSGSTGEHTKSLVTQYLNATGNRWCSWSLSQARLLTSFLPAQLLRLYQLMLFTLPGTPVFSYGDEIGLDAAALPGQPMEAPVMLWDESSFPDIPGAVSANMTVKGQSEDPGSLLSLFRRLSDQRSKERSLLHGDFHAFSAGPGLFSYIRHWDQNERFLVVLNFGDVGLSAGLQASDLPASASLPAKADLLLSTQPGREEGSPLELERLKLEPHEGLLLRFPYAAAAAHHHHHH

T2: human CD98 (Homo sapiens, UniProt P08195)
T2 sequence (P08195 1-630 isoform P08195-1): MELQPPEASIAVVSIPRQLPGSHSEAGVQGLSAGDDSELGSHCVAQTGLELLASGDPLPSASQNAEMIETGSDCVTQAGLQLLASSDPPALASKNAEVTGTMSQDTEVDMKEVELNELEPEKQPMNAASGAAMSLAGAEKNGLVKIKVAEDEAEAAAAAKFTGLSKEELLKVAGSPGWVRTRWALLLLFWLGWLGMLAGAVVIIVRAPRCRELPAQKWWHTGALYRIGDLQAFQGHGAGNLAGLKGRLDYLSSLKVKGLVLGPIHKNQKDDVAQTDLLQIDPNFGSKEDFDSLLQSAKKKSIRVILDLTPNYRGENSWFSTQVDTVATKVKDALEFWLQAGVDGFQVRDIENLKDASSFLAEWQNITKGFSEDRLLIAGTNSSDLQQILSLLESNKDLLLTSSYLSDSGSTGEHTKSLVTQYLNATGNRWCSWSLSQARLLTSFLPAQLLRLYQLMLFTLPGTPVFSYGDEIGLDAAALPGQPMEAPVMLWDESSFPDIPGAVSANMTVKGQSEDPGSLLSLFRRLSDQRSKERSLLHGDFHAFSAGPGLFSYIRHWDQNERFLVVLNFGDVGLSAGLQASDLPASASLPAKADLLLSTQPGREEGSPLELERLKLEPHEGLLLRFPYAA


Tests used:
[1] = Conjugation of anti-CD98 mAbs with Bcl-xL inhibitor synthons (precipitation, DAR, recovery, aggregation); details: Method E
Method: Method A. A solution of BOND-BREAKER tris(2-carboxyethyl)phosphine (TCEP) solution (10 mM, 0.017 mL) was added to a solution of antibody (10 mg/mL, […]) preheated to 37° C. The reaction mixture was kept at 37° C. for 1 hour. The solution of reduced antibody was added to a solution of synthon (3.3 mM, 0.160 mL in DMSO) and gently mixed for 30 minutes. The reaction solution was loaded onto a desalting column (PD10, washed with DPBS 3x before use), followed by DPBS (1.6 mL) and eluted with additional DPBS (3 mL). The purified ADC solution was filtered through a 0.2 micron, low protein-binding 13 mm syringe-filter and stored at 4° C.
Method E. A solution of BOND-BREAKER tris(2-carboxyethyl)phosphine (TCEP) solution (10 mM, 0.017 mL) was added to the solution of antibody (10 mg/mL, 1 mL) at room temperature. The reaction mixture was heated to 37° C. for 75 minutes. The solution of reduced antibody cooled to room temperature and was added to a solution of synthon (10 mM, 0.040 mL in DMSO) followed by addition of boric buffer (0.1 mL, 1M, pH 8). The reaction solution was let to stand for 3 days at room temperature, loaded onto a desalting column (PD10, washed with DPBS 3×5 mL before use), followed by DPBS (1.6 mL) and eluted with additional DPBS (3 mL). The purified ADC solution was filtered through a 0.2 micron, low protein-binding 13 mm syringe-filter and stored at 4° C.

[2] = tested on: cynomolgus monkey CD98 ECD; test: Biacore surface plasmon resonance binding kinetics (anti-Fc capture); details: cyCD98 ECD
Method: (§1) The binding kinetics of these purified mouse and rat monoclonal anti-CD98 antibodies for purified recombinant CD98 protein (extracellular domain, ECD) were determined by surface plasmon resonance-based measurements made on Biacore T100/T200 instruments (GE Healthcare, Piscataway, N.J.) at 25° C. using an anti-Fc capture assay approach. Binding kinetic measurements were made in the assay buffer HBS-EP+: 10 mM Hepes, pH 7.4, 150 mM NaCl, 3 mM EDTA, 0.05% Tween 20). For example, approximately 8000 RU of anti-Fc (species specific) polyclonal antibody (Thermo Fisher Scientific Inc., Rockford, Ill.) diluted in 10 mM sodium acetate (pH 4.5) was directly immobilized across a CM5 research grade biosensor chip using a standard amine coupling kit according to manufacturer's instructions and procedures at 25 μg/ml. Unreacted moieties on the biosensor surface were blocked with ethanolamine. The test antibody to be captured as a ligand was diluted in running buffer to ˜0.5 μg/mL and injected over anti-Fc surface at a flow rate of 10 μL/min. CD98 binding and dissociation were observed under a continuous flow rate of 80 μL/min. Human and cynomolgus monkey CD98 ECDs, both with a C-terminal His-tag, are used for this study (Table 3). After each cycle the anti-Fc capture surface was regenerated using 10 mM Glycine-HCl, pH 1.5. During the assay, all measurements were referenced against the capture surface alone (i.e., with no captured test antibody) and buffer-only injections (no antigen) were used for double referencing. For kinetic analysis, rate equations derived from the 1:1 Langmuir binding model were fitted simultaneously, globally and with mass transfer term included to multiple referenced antigen binding curves using Biacore T100/T200 Evaluation software.
(§2) The in vitro binding activities of the recombinant anti-CD98 chimeric mAbs were measured against both recombinant CD98 extracellular domain proteins (ECDs) and CD98-expressing cells. Briefly, binding kinetics of anti-CD98 chimera mAbs for human and cynomolgus CD98 ECDs were determined by surface plasmon resonance-based measurements as described in Example 4. Table 10 reported the association and dissociation rate constants for CD98 binding, ka (M^−1 s^−1) and kd (s^−1), and the equilibrium dissociation constant KD (M) of the interaction between antibodies and the target antigen. Binding of anti-CD98 chimera mAbs for CD98 on cell surface was evaluated by flow cytometry against CHO-K1 cell line stably transfected to express human CD98 and 3T12 cell line stably transfected to express cynomolgus monkey CD98.
(§3) The binding kinetics of the recombinant anti-CD98 chimeric antibodies for purified recombinant CD98 protein (extracellular domain, ECD) were determined by surface plasmon resonance-based measurements, as described in the Example 4.

[3] = biological target: T1, human CD98 ECD; test: as above; details: huCD98 ECD
Method: as §1, §2, §3

[4] = biological target: T2, human CD98; test: Binding of humanized antibodies to human CD98; details: humanized framework engineered antibodies

Sequence of cynomolgus monkey CD98 ECD (as listed by the source): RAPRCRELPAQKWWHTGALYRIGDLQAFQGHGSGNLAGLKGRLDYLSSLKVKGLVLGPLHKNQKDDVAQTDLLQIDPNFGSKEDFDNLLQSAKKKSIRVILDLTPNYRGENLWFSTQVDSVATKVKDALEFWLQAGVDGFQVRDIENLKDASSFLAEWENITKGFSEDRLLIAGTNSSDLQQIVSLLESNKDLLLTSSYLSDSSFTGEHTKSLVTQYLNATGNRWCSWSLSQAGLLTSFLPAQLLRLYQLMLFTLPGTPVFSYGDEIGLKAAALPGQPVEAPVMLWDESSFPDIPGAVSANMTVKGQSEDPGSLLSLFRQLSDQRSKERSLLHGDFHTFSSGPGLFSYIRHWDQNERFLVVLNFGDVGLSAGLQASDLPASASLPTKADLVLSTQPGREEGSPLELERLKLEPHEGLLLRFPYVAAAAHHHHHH

Molecule | ka [2] [M⁻¹ s⁻¹] | kd [2] [s⁻¹] | ka [3] [M⁻¹ s⁻¹] | kd [3] [s⁻¹] | binding to human CD98 [4] | % Aggregates by SEC ([1]; conjugation with synthon CZ) [%] | DAR by MS ([1]; conjugation with synthon CZ) | % Aggregates by SEC ([1]; conjugation with synthon TX) [%] | DAR by MS ([1]; conjugation with synthon TX)
huAb101: "heavy chain variable sequence of huAb101 is provided in SEQ ID NO: 106"; "light chain variable sequence ... in SEQ ID NO: 107" (antibody, V domains shown) VH: EVQLVESGGGLVKPGGSLRLSCATSGFTFIDYYMSWVRQAPGKGLEWLGFIRNKANRYTTEYSASVKGRFTISRDNSKSILYLQMNSLKTEDTAVYYCTRDRPAWFVYWGQGTLVTVSS VL: DIVMTQTPLSLPVTPGEPASISCKSSQSLLYSSNQKNYLAWYLQKPGQSPQLLIYWASTRESGVPDRFSGSGSGTDFTLKISRVEAEDVGVYYCQQYYSYPYTFGGGTKVEIK | 30000 | 0.00067 | 290000 | 0.0018 | maintained binding | 1.8 | 4.5 | 0.3 | 3.5
huAb103: "heavy chain variable sequence of huAb103 is provided in SEQ ID NO: 109"; "light chain variable sequence ... in SEQ ID NO: 107" (antibody, V domains shown) VH: EVQLVESGGGLVKPGGSLRLSCATSGFTFIDYYMSWVRQAPGKGLEWLGFIRNKAYGYTTEYSASVKGRFTISRDNSKSILYLQMNSLKTEDTAVYYCTRDRPAWFVYWGQGTLVTVSS VL: DIVMTQTPLSLPVTPGEPASISCKSSQSLLYSSNQKNYLAWYLQKPGQSPQLLIYWASTRESGVPDRFSGSGSGTDFTLKISRVEAEDVGVYYCQQYYSYPYTFGGGTKVEIK | 31000 | 0.00044 | 180000 | 0.00059 | maintained binding | 15.9 | 4.4 | 0.9 | 3.8

The next lines start with results.

ka [2] [M⁻¹ s⁻¹] | kd [2] [s⁻¹] | ka [3] [M⁻¹ s⁻¹] | kd [3] [s⁻¹] | binding to human CD98 [4] | Molecule | % Aggregates by SEC ([1]; conjugation with synthon CZ) [%] | DAR by MS ([1]; conjugation with synthon CZ) | % Aggregates by SEC ([1]; conjugation with synthon TX) [%] | DAR by MS ([1]; conjugation with synthon TX)
38000 | 5.3e-05 | 140000 | 2.4e-05 | maintained binding | huAb105: "heavy chain variable sequence of huAb105 is provided in SEQ ID NO: 111"; "light chain variable sequence ... in SEQ ID NO: 112" (antibody, V domains shown) VH: EVQLVESGGGLVQPGGSLRLSCAASGFTFSDYTMAWVRQAPGKGLEWVATIIYSGRGTYYRDAVKGRFTISRDNAKNTLYLQMNSLRAEDTAVYYCARQSDHTYYYWGYFDYWGQGTMVTVSS VL: DIVMTQTPLSLPVTPGEPASINCKSSQSLLFSGNQKNYLAWYLQKPGQSPQLLIYWASTRQSGVPDRFSGSGSGTDFTLKISRVEAEDVGIYYCQQYYDVPYTFGQGTKLEIK |  | 1.2 | 0.6 | 1.7
33000 | 8.7e-05 | 110000 | 3.8e-05 | maintained binding | huAb107: "heavy chain variable sequence of huAb107 is provided in SEQ ID NO: 114"; "light chain variable sequence ... in SEQ ID NO: 112" (antibody, V domains shown) VH: EVQLVESGGGLVQPGGSLRLSCAASGFTFSDYTMAWVRQAPGKGLEWVATIIYSGRGTYYRDAVKGRFTISRDNAKNTLYLQMNSLRAEDTAVYYCARQSDDTYYYWGYFDYWGQGTMVTVSS VL: DIVMTQTPLSLPVTPGEPASINCKSSQSLLFSGNQKNYLAWYLQKPGQSPQLLIYWASTRQSGVPDRFSGSGSGTDFTLKISRVEAEDVGIYYCQQYYDVPYTFGQGTKLEIK | 1.9 | 2.2 | 1.5 | 3.1
26000 | 0.00031 | 160000 | 0.00017 | maintained binding | huAb109: "heavy chain variable sequence of huAb109 is provided in SEQ ID NO: 116"; "light chain variable sequence ... in SEQ ID NO: 117" (antibody, V domains shown) VH: EVQLVESGGGLVQPGGSLRLSCAASGFTFSDYTMAWVRQAPGKGLEWVATIIYDARGTYYRDAVKGRFTISRDNAKNTLYLQMNSLRAEDTAVYYCARQSDDTYYYWGYFDYWGQGTMVTVSS VL: DIVMTQTPLSLPVTPGEPASINCKSSQSLLFSGNQKNYLAWYLQKPGQSPQLLIYWASTRQSGVPDRFSGSGSGTDFTLKISRVEAEDVGIYYCQQYYSSPYTFGQGTKLEIK | 2.5 | 2.1 | 1.0 | 2.9
